Test system: T1, C[C@@H]1O[C@@H](OC[C@H]2O[C@@H](Oc3c(-c4ccc(O)c(O)c4)oc4cc(O)cc(O)c4c3=O)[C@H](O)[C@@H](O)[C@@H]2O)[C@H](O)[C@H](O)[C@H]1O
T1 construct: N-terminal His tag, pET28a in E. coli BL21(DE3), Ni-NTA; forward coding primer starts ATGGCCGACGACTATGGC (MADDYG)
Test: purified protein
Type: biochemical, Carthamus tinctorius
Conditions: range of rutin concentrations; no redox partner or NADPH stated

CtCYP82G24 (Carthamus tinctorius var. tinctorius)
Km: 5.37 ± 0.123 mM
